Measured values from IntAct's records for PubMed 22624718.

B1: Leukocyte antigen CD37 (Homo sapiens), P11049 (parent)
chain: MSAQESCLSLIKYFLFVFNLFFFVLGSLIFCFGIWILIDKTSFVSFVGLAFVPLQIWSKVLAISGIFTMGIALLGCVGALKELRCLLGLYFGMLLLLFATQITLGILISTQRAQLERSLRDVVEKTIQKYGTNPEETAAEESWDYVQFQLRCCGWHYPQDWFQVLILRGNGSEAHRVPCSCYNLSATNDSTILDKVILPQLSRLGHLARSRHSADICAVPAESHIYREGCAQGLQKWLHNNLISIVGICLGVGLLELGFMTLSIFLCRNLDHVYNRLARYR

Variants of: B1
Details: with lyn_human LYN

Row | Variant | effect of a mutation on the interaction
1 | MSAQESCLSLIKFFLFVFNLFFFVLGSLIFCFGIWILIDKTSFVSFVGLAFVPLQIWSKVLAISGIFTMGIALLGCVGALKELRCLLGLYFGMLLLLFATQITLGILISTQRAQLERSLRDVVEKTIQKYGTNPEETAAEESWDYVQFQLRCCGWHYPQDWFQVLILRGNGSEAHRVPCSCYNLSATNDSTILDKVILPQLSRLGHLARSRHSADICAVPAESHIYREGCAQGLQKWLHNNLISIVGICLGVGLLELGFMTLSIFLCRNLDHVYNRLARYR [Y13F] | disrupting interaction

Variants of: B1
Details: with ptn6_human PTPN6, P29350
Chain of ptn6_human PTPN6, P29350 (P29350 whole entry): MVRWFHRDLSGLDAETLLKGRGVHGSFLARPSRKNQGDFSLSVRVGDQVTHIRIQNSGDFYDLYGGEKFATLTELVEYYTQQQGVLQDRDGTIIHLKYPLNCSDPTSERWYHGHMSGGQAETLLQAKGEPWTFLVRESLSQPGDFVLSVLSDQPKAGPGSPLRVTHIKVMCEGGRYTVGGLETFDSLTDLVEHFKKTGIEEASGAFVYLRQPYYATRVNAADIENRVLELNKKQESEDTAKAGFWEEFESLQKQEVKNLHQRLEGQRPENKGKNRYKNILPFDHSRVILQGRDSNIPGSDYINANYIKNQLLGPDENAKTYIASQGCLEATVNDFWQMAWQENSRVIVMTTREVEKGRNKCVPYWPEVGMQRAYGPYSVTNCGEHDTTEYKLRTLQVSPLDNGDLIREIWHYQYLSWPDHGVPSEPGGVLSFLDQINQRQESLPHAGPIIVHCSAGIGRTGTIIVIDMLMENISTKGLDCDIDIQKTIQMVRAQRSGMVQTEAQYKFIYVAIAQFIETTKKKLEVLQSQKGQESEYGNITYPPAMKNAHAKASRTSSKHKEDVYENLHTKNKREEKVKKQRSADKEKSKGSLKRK

Row | Variant | effect of a mutation on the interaction
2 | MSAQESCLSLIKFFLFVFNLFFFVLGSLIFCFGIWILIDKTSFVSFVGLAFVPLQIWSKVLAISGIFTMGIALLGCVGALKELRCLLGLYFGMLLLLFATQITLGILISTQRAQLERSLRDVVEKTIQKYGTNPEETAAEESWDYVQFQLRCCGWHYPQDWFQVLILRGNGSEAHRVPCSCYNLSATNDSTILDKVILPQLSRLGHLARSRHSADICAVPAESHIYREGCAQGLQKWLHNNLISIVGICLGVGLLELGFMTLSIFLCRNLDHVYNRLARYR [Y13F] | disrupting interaction
